Source: the supplement of paper PMC9112550, “Optimization of the antimicrobial peptide Bac7 by deep mutational scanning” (BMC Biology, 2022)

Tested on: Escherichia coli TOP10
Test: shrunken log2 fold change of peptide-encoding DNA abundance (4.5 h post-induction vs induction); higher = less antimicrobial activity (less host growth inhibition)
Conditions: time post-induction: 4.5 h; library: site-saturation at positions 5, 18, 19, 20
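Note: peptides expressed intracellularly from a pBAD plasmid library in pooled LB shake-flask culture, induced with 0.3% L-arabinose, DNA abundance read by NGS, three biological replicates, DESeq2 with apeglm shrinkage.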

| Sequence | shrunken log2 fold change |
| --- | --- |
| RRIRYRPPRLPRPRPRPTCTPRP | -0.229 |
| RRIRYRPPRLPRPRPRPRSDPRP | -0.113 |
| RRIRVRPPRLPRPRPRPSRIPRP | 0.0876 |
| RRIRLRPPRLPRPRPRPQEGPRP | 0.0327 |
| RRIRMRPPRLPRPRPRPVRNPRP | 0.0163 |
| RRIRRRPPRLPRPRPRPMVAPRP | 0.363 |
| RRIRCRPPRLPRPRPRPSLAPRP | 0.133 |
| RRIRYRPPRLPRPRPRPWTFPRP | -0.225 |
| RRIRHRPPRLPRPRPRPTPGPRP | 0.327 |
| RRIRARPPRLPRPRPRPTIMPRP | 0.15 |
| RRIRARPPRLPRPRPRPFTGPRP | -0.00992 |
| RRIRARPPRLPRPRPRPNVAPRP | 0.477 |
| RRIRKRPPRLPRPRPRPYHCPRP | -0.0129 |
| RRIRSRPPRLPRPRPRPIGCPRP | -0.144 |
| RRIRARPPRLPRPRPRPVRGPRP | 0.945 |
| RRIRSRPPRLPRPRPRPDLIPRP | -0.00967 |
| RRIRVRPPRLPRPRPRPMESPRP | 0.156 |
| RRIRIRPPRLPRPRPRPFAQPRP | -0.108 |
| RRIRGRPPRLPRPRPRPRIIPRP | 0.0317 |
| RRIRFRPPRLPRPRPRPMATPRP | -0.227 |
| RRIRRRPPRLPRPRPRPRYSPRP | -0.49 |
| RRIRIRPPRLPRPRPRPDWSPRP | -0.161 |
| RRIRQRPPRLPRPRPRPGTPPRP | 0.000485 |
| RRIRDRPPRLPRPRPRPDRDPRP | -0.0722 |
| RRIRARPPRLPRPRPRPTDWPRP | 0.712 |

| Sequence | shrunken log2 fold change |
| --- | --- |
| RRIRFRPPRLPRPRPRPVYWPRP | -0.195 |
| RRIRMRPPRLPRPRPRPMTYPRP | 0.157 |
| RRIRFRPPRLPRPRPRPFMMPRP | -0.693 |
| RRIRNRPPRLPRPRPRPGQRPRP | 0.00993 |
| RRIRCRPPRLPRPRPRPDIIPRP | -0.132 |
| RRIRFRPPRLPRPRPRPSGAPRP | 0.103 |
| RRIRMRPPRLPRPRPRPSWMPRP | -0.0767 |
| RRIRSRPPRLPRPRPRPNIHPRP | 0.829 |
| RRIRPRPPRLPRPRPRPWLKPRP | -0.371 |
| RRIRTRPPRLPRPRPRPHSFPRP | -0.0168 |
| RRIRIRPPRLPRPRPRPEERPRP | 0.0136 |
| RRIRQRPPRLPRPRPRPMNCPRP | -0.0255 |
| RRIRNRPPRLPRPRPRPSVQPRP | -0.0954 |
| RRIRERPPRLPRPRPRPHGFPRP | -0.0632 |
| RRIRSRPPRLPRPRPRPIFQPRP | -0.0307 |
| RRIRARPPRLPRPRPRPYGCPRP | -0.55 |
| RRIRERPPRLPRPRPRPFYGPRP | 0.015 |
| RRIRVRPPRLPRPRPRPGTAPRP | 0.136 |
| RRIRERPPRLPRPRPRPQWMPRP | 0.0273 |
| RRIRMRPPRLPRPRPRPSAEPRP | 2.7 |
| RRIRRRPPRLPRPRPRPMIPPRP | -0.062 |
| RRIRQRPPRLPRPRPRPELQPRP | -0.0257 |
| RRIRFRPPRLPRPRPRPGEVPRP | 0.185 |
| RRIRNRPPRLPRPRPRPPRCPRP | 0.389 |
| RRIRMRPPRLPRPRPRPVCVPRP | 0.241 |

| Sequence | shrunken log2 fold change |
| --- | --- |
| RRIRTRPPRLPRPRPRPMPGPRP | 0.106 |
| RRIRFRPPRLPRPRPRPVYRPRP | -0.285 |
| RRIRCRPPRLPRPRPRPLEPPRP | 0.0773 |
| RRIRARPPRLPRPRPRPFKFPRP | 0.0771 |
| RRIRDRPPRLPRPRPRPRYQPRP | 0.204 |
| RRIRLRPPRLPRPRPRPIAQPRP | -0.0527 |
| RRIRYRPPRLPRPRPRPCLKPRP | -0.0431 |
| RRIRHRPPRLPRPRPRPACAPRP | 0.436 |
| RRIRVRPPRLPRPRPRPTIHPRP | -0.239 |
| RRIRWRPPRLPRPRPRPPKYPRP | -0.163 |
| RRIRTRPPRLPRPRPRPESPPRP | 0.305 |
| RRIRTRPPRLPRPRPRPYIGPRP | -0.119 |
| RRIRPRPPRLPRPRPRPIILPRP | -0.0642 |
| RRIRARPPRLPRPRPRPNNSPRP | -0.483 |
| RRIRARPPRLPRPRPRPYMFPRP | -0.262 |
| RRIRDRPPRLPRPRPRPLNKPRP | -0.295 |
| RRIRDRPPRLPRPRPRPQVPPRP | -0.0122 |
| RRIRVRPPRLPRPRPRPEGKPRP | 0.217 |
| RRIRCRPPRLPRPRPRPKLWPRP | 0.121 |
| RRIRPRPPRLPRPRPRPPHHPRP | 0.188 |
| RRIRVRPPRLPRPRPRPWWQPRP | -0.201 |
| RRIRQRPPRLPRPRPRPPRNPRP | 0.765 |
| RRIRLRPPRLPRPRPRPKRFPRP | 0.104 |
| RRIRVRPPRLPRPRPRPKYRPRP | -0.0331 |
| RRIRLRPPRLPRPRPRPLGPPRP | 0.332 |

| Sequence | shrunken log2 fold change |
| --- | --- |
| RRIRERPPRLPRPRPRPKNRPRP | 0.103 |
| RRIRFRPPRLPRPRPRPNFGPRP | 0.0849 |
| RRIRFRPPRLPRPRPRPEIWPRP | 0.217 |
| RRIRFRPPRLPRPRPRPHFGPRP | -0.197 |
| RRIRGRPPRLPRPRPRPRWVPRP | 0.289 |
| RRIRIRPPRLPRPRPRPWGPPRP | 0.102 |
| RRIRTRPPRLPRPRPRPFNFPRP | -0.617 |
| RRIRSRPPRLPRPRPRPRMWPRP | 0.114 |
| RRIRWRPPRLPRPRPRPLEIPRP | 0.299 |
| RRIRERPPRLPRPRPRPDPNPRP | 0.0422 |
| RRIRVRPPRLPRPRPRPNECPRP | -0.0835 |
| RRIRLRPPRLPRPRPRPDLRPRP | -0.0717 |
| RRIRGRPPRLPRPRPRPPWMPRP | 0.373 |
| RRIRCRPPRLPRPRPRPPEKPRP | 0.299 |
| RRIRTRPPRLPRPRPRPAYWPRP | -0.017 |
| RRIRERPPRLPRPRPRPNQSPRP | -0.236 |
| RRIRGRPPRLPRPRPRPYKMPRP | -0.234 |
| RRIRCRPPRLPRPRPRPINGPRP | -0.282 |
| RRIRDRPPRLPRPRPRPQMYPRP | -0.127 |
| RRIRHRPPRLPRPRPRPMMRPRP | 0.0201 |
| RRIRIRPPRLPRPRPRPHVLPRP | -0.198 |
| RRIRERPPRLPRPRPRPRKDPRP | -0.245 |
| RRIRARPPRLPRPRPRPTEQPRP | 0.184 |
| RRIRIRPPRLPRPRPRPIHMPRP | -0.379 |
| RRIRFRPPRLPRPRPRPGIKPRP | -0.137 |

| Sequence | shrunken log2 fold change |
| --- | --- |
| RRIRNRPPRLPRPRPRPHVHPRP | -0.109 |
| RRIRTRPPRLPRPRPRPVDWPRP | 0.0292 |
| RRIRCRPPRLPRPRPRPPGFPRP | 0.822 |
| RRIRQRPPRLPRPRPRPGQQPRP | -0.0212 |
| RRIRHRPPRLPRPRPRPAMLPRP | -0.168 |
| RRIRERPPRLPRPRPRPEKKPRP | -0.0578 |
| RRIRLRPPRLPRPRPRPFWHPRP | -0.0379 |
| RRIRYRPPRLPRPRPRPNGHPRP | -0.24 |
| RRIRFRPPRLPRPRPRPCTCPRP | -0.187 |
| RRIRKRPPRLPRPRPRPNTTPRP | -0.0509 |
| RRIRLRPPRLPRPRPRPPTFPRP | 0.00353 |
| RRIRERPPRLPRPRPRPNECPRP | -0.154 |
| RRIRMRPPRLPRPRPRPSEYPRP | 0.0493 |
| RRIRVRPPRLPRPRPRPCLDPRP | -0.135 |
| RRIRMRPPRLPRPRPRPRQVPRP | 0.388 |
| RRIRVRPPRLPRPRPRPSIEPRP | -0.255 |
| RRIRERPPRLPRPRPRPQHYPRP | -0.398 |
| RRIRERPPRLPRPRPRPDGQPRP | -0.388 |
| RRIRVRPPRLPRPRPRPVFAPRP | 0.217 |
| RRIRKRPPRLPRPRPRPYELPRP | -0.0181 |
| RRIRRRPPRLPRPRPRPSDLPRP | 0.0119 |
| RRIRGRPPRLPRPRPRPAHNPRP | 0.157 |
| RRIRKRPPRLPRPRPRPHRRPRP | 3.99 |
| RRIRLRPPRLPRPRPRPFQHPRP | -0.175 |
| RRIRYRPPRLPRPRPRPHGHPRP | -0.358 |
